Measurements published in patent publication US11524046B2, “Biofilm prevention, disruption and treatment with bacteriophage lysin” (priority 2012, dated 2022).

How the values were obtained:
Bacillus cereus = Bacillus cereus (10)
biofilms of BAA-42 MRSA = assay: Biofilm eradication in 24-well plates, crystal violet staining; format: cell-based, S. aureus
Enterococcus faecium = Enterococcus faecium (5)
Streptococcus mutans = assay: MIC of PlySs2, susceptible and non-susceptible bacterial strains; format: cell-based; details: Streptococcus mutans (12)
[1] = tested on: S. epidermidis (strain CFS 313 NRS34) biofilm; assay: S. epidermidis catheter biofilm titration, methylene blue staining; format: cell-based; details: MIC 8 ug/ml
Protocol: S. epidermidis biofilms in catheters were treated with PlySs2 and evaluated using methods similarly as described above for the S. aureus studies.
The results of S. epidermidis (strain CFS 313 NRS34, which is a vancomycin intermediate sensitive S. epidermidis (VISE) strain) biofilm studies on catheters treated with PlySs2 at 10×MIC and below are shown in FIG. 17. S. epidermidis biofilm is destroyed at PlySs2 concentrations down to 0.1×MIC. The MIC here is 8 ug/ml.

[2] = tested on: MRSA biofilms grown on catheters (strain ATCC BAA-42); assay: Catheter biofilm eradication in vitro, methylene blue staining
Enterococcus faecalis = Enterococcus faecalis (17)
S. aureus strains = assay: PlySs2 and antibiotic MIC, broth microdilution, 80% growth inhibition (CLSI M07-A9); format: cell-based
[3] = tested on: MRSA strains CFS 553 (ATCC 43300) and CFS 992 (JMI 5381) biofilms; assay: Catheter biofilm titration of additional MRSA strains, methylene blue staining; format: cell-based, S. aureus; details: 4 hours
[4] = tested on: Streptococcus pyogenes, Group A; assay: MIC of PlySs2, susceptible and non-susceptible bacterial strains; format: cell-based; details: Group A (54)
Escherichia coli = Escherichia coli (6)

B1: PlySs2: bacteriophage lysin derived from Streptococcus suis, amino acid sequence of FIG. 5 / SEQ ID NO: 1; CHAP and SH3 domains (protein, listed as Streptococcus suis)
chain: MTTVNEALNNVRAQVGSGVSVGNGECYALASWYERMISPDATVGLGAGVGWVSGAIGDTISAKNIGSSYNWQANGWTVSTSGPFKAGQIVTLGATPGNPYGHVVIVEAVDGDRLTILEQNYGGKRYPVRNYYSAASYRQQVVHYITPPGTVAQSAPNLAGSRSYRETGTMTVTVDALNVRRAPNTSGEIVAVYKRGESFDYDTVIIDVNGYVWVSYIGGSGKRNYVATGATKDGKRFGNAWGTFK
- MIC 50% (Bacillus cereus): >512 µg/mL
- MIC 90% (Bacillus cereus): >512 µg/mL
- MIC Range (Bacillus cereus): >512 µg/mL
- biofilm dissolution (biofilms of BAA-42 MRSA; 3.2 μg/ml (1/10×MIC), 4 hours): Significant dissolution
- time by which full clearance was observed (biofilms of BAA-42 MRSA; 0.01×MIC): ≤ 24 h
- biofilm clearance (biofilms of BAA-42 MRSA; 0.01×MIC, 4 hours): partial clearance
- time by which the biofilm is cleared (biofilms of BAA-42 MRSA; 0.1×MIC): ≤ 4 h
- biofilm dissolution (biofilms of BAA-42 MRSA; 0.32 (1/100×MIC), 4 hours): some dissolution
- time by which the biofilm is cleared (biofilms of BAA-42 MRSA; 1×MIC 32 μg/ml): ≤ 2 h
- MIC 50% (Enterococcus faecium): >512 µg/mL
- MIC 90% (Enterococcus faecium): >512 µg/mL
- MIC 50% (Streptococcus mutans): 64 µg/mL
- MIC 90% (Streptococcus mutans): 256 µg/mL
- MIC Range (Streptococcus mutans): 2 to 256 µg/mL
- lowest concentration at which biofilm is destroyed [1]: 0.1 ×MIC
- time of full removal of stainable biofilm ([2]; 1×MIC (32 ug/mL)): ≤ 60 min
- biofilm clearance from the catheter ([2]; 1×MIC, 24 hours): completely cleared
- MIC 50% (Enterococcus faecalis): >512 µg/mL
- MIC 90% (Enterococcus faecalis): >512 µg/mL
- MIC90 (S. aureus strains; DRSA (n = 8)): 0.15 µM
- MIC90 (S. aureus strains; LRSA (n = 5)): 0.08 µM
- MIC90 (S. aureus strains; MRSA (n = 45)): 0.15 µM
- MIC90 (S. aureus strains; MSSA (n-28)): 0.15 µM
- MIC90 (S. aureus strains; VISA (n = 10)): 1.2 µM
- MIC90 (S. aureus strains; VRSA (n = 14)): 0.08 µM
- catheter biofilm eradication ([3]; CFS 553 (ATCC 43300), 0.01×MIC): significantly reduced
- catheter biofilm eradication ([3]; CFS 553 (ATCC 43300), 10×MIC, 1×MIC, and 0.1×MIC): eradicated and fully dispersed
- catheter biofilm eradication ([3]; CFS 992 (JMI 5381), 0.01×MIC): significantly reduced
- catheter biofilm eradication ([3]; CFS 992 (JMI 5381), 10×MIC, 1×MIC, and 0.1×MIC): eradicated and fully dispersed
- MIC 50% [4]: 2 µg/mL
- MIC 90% [4]: 8 µg/mL
- MIC Range [4]: 0.5 to 8 µg/mL
- MIC 50% (Escherichia coli): >512 µg/mL
- MIC 90% (Escherichia coli): >512 µg/mL
- MIC Range (Escherichia coli): >512 µg/mL
